Test results as given in article PMC13087489.

Biological target: CsERF061 (Citrus sinensis? (blood orange), UniProt A0ACB8LNY5 1-312)
Assay: EMSA

B1: RE-mut-probe (dsDNA)
DNA 1: TGTCAAAAAAAAAAGCCACAAGGCAAATTCAAGTTG
DNA 2: CAACTTGAATTTGCCTTGTGGCTTTTTTTTTTGACA
B1: no binding.
